Key:
[1] = target: T1, human epidermal growth factor receptor 3 (HER3) (human, UniProt P21860 20-1342); experiment: flow cytometry on A431 cells
T1 construct: whole, on cells; also called ErbB3; Erbb3
Description: (§1) The affinity of anti-human HER3 ADC to MDA-MB-453, NCI-H358, KPL-4, and A431 cells was detected by flow cytometry (Beckman, model Cytoflex).
(§2) Adherent MDA-MB-453, NCI-H358, KPL-4, A431 cells were digested with Tryple (manufacturer: Gibco) solution, counted, and an appropriate amount of the cells were taken, washed twice with 1×PBS, resuspended in 1% BSA in PBS solution, and then transferred to a 96-well sharp-bottom plate, 50 μl per well; candidate antibodies and drug conjugates thereof were diluted with 1% BSA in PBS solution by 3-fold or 2.5-fold serial dilution starting from 5 μg/mL, and then 50 μl of the diluted antibody or antibody-drug conjugate was added to the sharp-bottom plate containing the cells, and incubation was carried out at 4° C. for 40 minutes; the cells were washed twice with PBS, then added with 50 μl of diluted secondary antibody to each well, mixed, and incubated at 4° C. for 30 minutes; the cells were washed with PBS twice, then resuspended in 400 μl of PBS and detected by flow cytometry. Data processing: the average fluorescence signal values were exported, and then input into GraphPad Prism 6 software to calculate EC50.

[2] = target: T1, human epidermal growth factor receptor …; experiment: flow cytometry on KPL-4 cells
Description: as §1, §2

[3] = target: T1, human epidermal growth factor receptor …; experiment: flow cytometry on NCI-H358 cells
Description: as §1, §2

[4] = target: T1, human epidermal growth factor receptor …; experiment: cell-based or functional assay
[5] = target: T1, human epidermal growth factor receptor …; experiment: flow cytometry on MDA-MB-453 cells
Description: as §1, §2

[6] = target: T1, human epidermal growth factor receptor …; experiment: flow cytometry on MDA-MB-453 cells (second experiment, dilution from 15 ug/mL)
Description: The affinity of anti-human HER3 ADC to MDA-MB-453 cells was detected by flow cytometry (Beckman, model Cytoflex).
Adherent MDA-MB-453 cells were digested with Tryple (manufacturer: Gibco) solution, counted, and an appropriate amount of the cells were taken, washed twice with 1×PBS, resuspended in 1% BSA solution, and then transferred to a 96-well sharp-bottom plate, 50 μl per well; candidate antibodies and drug conjugates thereof were diluted with 1% BSA by 3-fold serial dilution starting from 15 μg/mL, and then 50 μl of the diluted antibody or antibody-drug conjugate was added to the sharp-bottom plate containing the cells, and incubation was carried out at 4° C. for 40 minutes; the cells were washed twice with PBS, then added with 50 μl of diluted secondary antibody to each well, mixed, and incubated at 4° C. for 30 minutes; the cells were washed with PBS twice, then resuspended in 200 μl of PBS and detected by flow cytometry. Data processing: the average fluorescence signal values were exported, and then input into GraphPad Prism 6 software to calculate EC50.

Binder | EC50 [1] [µg/mL] | EC50 [2] [µg/mL] | EC50 [3] [µg/mL] | IC50 (nM), in vitro cytotoxicity (CCK8, 6 days) on HEK293T-hHER3 cells [4] [nM] | EC50 [5] [µg/mL] | EC50 [6] [µg/mL] | IC50 (nM), in vitro cytotoxicity (CCK8, 6 days) on HCC1569 cells [4] [nM] | IC50 (nM), in vitro cytotoxicity (CCK8, 6 days) on MDA-MB-453 cells [4] [nM]
ADC 47A3-A-07-A (antibody, human IgG1, kappa, V domains shown, drug-linker A-07-A on a cysteine sulfhydryl group; LC-DAR1 ratio 0.820; drug-linker A-07-A on cysteine sulfhydryl groups after TCEP reduction; HC-DAR3 ratio 0.760, HC-DAR0 ratio 0.222) VH: EVQLQESGPGLVKPSQTLSLTCAISGDSVSSSQSTWNWIRQSPSRGLEWLGRTFYRSRWYNDYALSMKSRITINPDTSKNQFSLQLNPVTPEDTAVYYCARDTYYYGSGGFDYWGQGSRVTVSS VL: DIQMTQSPSTLSASVGDRVTITCRASQSLSRWLAWYQQKPEKAPKLLIYKASSLESGVPSRFSGSGSGTEFTLTISTLQPDDFATYYCQQYKNYYSFGQGTKLEIKR | 0.0656 | 0.125 | 0.158 | – | – | – | – | –
ADC 22B6-A-01 (antibody, human IgG1, kappa, V domains shown, drug-linker A-01 on a cysteine sulfhydryl group; LC-DAR1 ratio 0.990; drug-linker A-01 on cysteine sulfhydryl groups after TCEP reduction; mainly 3 per heavy chain (HC-DAR3 ratio 0.981)) VH: EVHLVESGGGVVQPGRSLRLSCATSGFTFRSYGMHWVRQAPGKGLEWVAVIWYDGSNKYYADSVKGRFTISRDISKNTLYLQMNSLTAEDTAVYYCARYYYDSNGYYDAFDIWGQGTMVTVSS VL: DIQLTQSPSFLSASVGDRVTITCRASQGISNYLAWYQQKPGKAPKLLIFAASTLQSGVPSRFSGSGSGAEFTLTISSLEPEDFATYYCQQLNSYPITFGQGTRLEIKR | 0.0307 | 0.0387 | 0.0445 | 0.0014 | – | – | – | –
22B6D2-hIgG1 (antibody, V domains shown) VH: EVHLVESGGGVVQPGRSLRLSCATSGFTFRSYGMHWVRQAPGKGLEWVAVIWYDGSNKYYADSVKGRFTISRDISKNTLYLQMNSLTAEDTAVYYCARYYYDSNGYYDAFDIWGQGTMVTVSS VL: DIQLTQSPSFLSASVGDRVTITCRASQGISNYLAWYQQKPGKAPKLLIFAASTLQSGVPSRFSGSGSGAEFTLTISSLEPEDFATYYCQQLNSYPITFGQGTRLEIKR | – | – | – | – | 0.0392 | 0.0854 | – | –
ADC 22B6-B-04-02 (antibody, human IgG1, kappa, V domains shown, drug-linker B-04 on cysteine sulfhydryl groups after TCEP reduction (overall DAR 6.87; split between the chains not given), Antibody-drug conjugate of 22B6D2-hIgG1 with drug-linker B-04; also called 22B6-B-04-2) VH: EVHLVESGGGVVQPGRSLRLSCATSGFTFRSYGMHWVRQAPGKGLEWVAVIWYDGSNKYYADSVKGRFTISRDISKNTLYLQMNSLTAEDTAVYYCARYYYDSNGYYDAFDIWGQGTMVTVSS VL: DIQLTQSPSFLSASVGDRVTITCRASQGISNYLAWYQQKPGKAPKLLIFAASTLQSGVPSRFSGSGSGAEFTLTISSLEPEDFATYYCQQLNSYPITFGQGTRLEIKR | – | – | – | – | – | 0.195 | – | –
ADC 22B6-B-01 (antibody, human IgG1, kappa, V domains shown, drug-linker B-01 on a cysteine sulfhydryl group; LC-DAR1 ratio 0.999; drug-linker B-01 on cysteine sulfhydryl groups after TCEP reduction; mainly 3 per heavy chain (HC-DAR3 ratio 0.933)) VH: EVHLVESGGGVVQPGRSLRLSCATSGFTFRSYGMHWVRQAPGKGLEWVAVIWYDGSNKYYADSVKGRFTISRDISKNTLYLQMNSLTAEDTAVYYCARYYYDSNGYYDAFDIWGQGTMVTVSS VL: DIQLTQSPSFLSASVGDRVTITCRASQGISNYLAWYQQKPGKAPKLLIFAASTLQSGVPSRFSGSGSGAEFTLTISSLEPEDFATYYCQQLNSYPITFGQGTRLEIKR | 0.0328 | 0.0519 | 0.0298 | – | – | – | – | –
ADC 22B6-A-07-A-1 (antibody, human IgG1, kappa, V domains shown, drug-linker A-07-A on a cysteine sulfhydryl group; mainly 1 per light chain (LC-DAR1 ratio 0.998); drug-linker A-07-A on cysteine sulfhydryl groups after TCEP reduction; mainly 3 per heavy chain (HC-DAR3 ratio 0.966)) VH: EVHLVESGGGVVQPGRSLRLSCATSGFTFRSYGMHWVRQAPGKGLEWVAVIWYDGSNKYYADSVKGRFTISRDISKNTLYLQMNSLTAEDTAVYYCARYYYDSNGYYDAFDIWGQGTMVTVSS VL: DIQLTQSPSFLSASVGDRVTITCRASQGISNYLAWYQQKPGKAPKLLIFAASTLQSGVPSRFSGSGSGAEFTLTISSLEPEDFATYYCQQLNSYPITFGQGTRLEIKR | 0.0284 | 0.0325 | 0.0329 | 0.0038 | 0.056 | 0.147 | 15.6 | 19
ADC 100H7-A-07-A (antibody, human IgG1, kappa, V domains shown, drug-linker A-07-A on a cysteine sulfhydryl group; LC-DAR1 ratio 1.000; drug-linker A-07-A on cysteine sulfhydryl groups after TCEP reduction; mainly 3 per heavy chain (HC-DAR3 ratio 0.989)) VH: EVQLVESGGGVVLPGRSLRLSCAASGFTFSRNAMHWVRQAPGKGLEWVAVIWHDGSNKYYGDSVKGRFTISRDNSKNTLYLQMDSLTAEDTAVYYCARDRGASDFRGQGTLVTVSS VL: DIQMTQSPSTLSASVGDRVTITCRASQSINNWLAWYQQKPEKAPKLLIYKASSLESGVPSRFSGSGSGTEFTLTISSLQPDDFATYYCQQYNSYSLTFGGGTKVEIKR | 0.266 | 0.274 | 0.427 | – | – | – | – | –
U1-59 (HER3 control antibody) (antibody, V domains shown) VH: QVQLQQWGAGLLKPSETLSLTCAVYGGSFSGYYWSWIRQPPGKGLEWIGEINHSGSTNYNPSLKSRVTISVETSKNQFSLKLSSVTAADTAVYYCARDKWTWYFDLWGRGTLVTVSS VL: not shown | – | – | – | – | 0.426 | 0.684 | – | –
